The record followed here is article PMC7185567.

One data set addresses T1, ISY1 (human, UniProt Q9ULR0 1-285).
T1 sequence: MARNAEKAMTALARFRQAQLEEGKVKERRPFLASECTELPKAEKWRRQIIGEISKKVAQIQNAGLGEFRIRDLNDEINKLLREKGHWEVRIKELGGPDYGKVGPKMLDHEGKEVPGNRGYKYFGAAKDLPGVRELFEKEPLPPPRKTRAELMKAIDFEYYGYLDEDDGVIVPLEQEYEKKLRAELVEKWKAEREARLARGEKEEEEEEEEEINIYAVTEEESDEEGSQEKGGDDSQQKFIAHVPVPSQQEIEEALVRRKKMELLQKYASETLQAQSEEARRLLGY
As to the kind of experiment: EMSA. (In EMSA bound probe runs differently from free probe, usually more slowly.)

In data set [1] the target is APE1 (apurinic/apyrimidinic endonuclease 1) (human, UniProt P27695 1-318). The data set is described as follows: EMSA.
APE1 (apurinic/apyrimidinic endonuclease 1), sequence (P27695 whole entry): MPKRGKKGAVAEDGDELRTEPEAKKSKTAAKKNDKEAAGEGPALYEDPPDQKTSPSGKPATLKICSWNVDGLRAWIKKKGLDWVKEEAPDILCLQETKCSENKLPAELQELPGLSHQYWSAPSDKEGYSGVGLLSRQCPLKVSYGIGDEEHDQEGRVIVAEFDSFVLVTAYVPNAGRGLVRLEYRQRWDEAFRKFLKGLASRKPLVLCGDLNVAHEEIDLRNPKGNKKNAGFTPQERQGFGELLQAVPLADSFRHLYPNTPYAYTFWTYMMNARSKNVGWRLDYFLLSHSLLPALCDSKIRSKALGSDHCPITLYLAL

B1: 37-mer control DNA duplex (no AP site) (dsDNA)
DNA 1: CCTGCAGCTGGTGCAAAAGTATTGCGGCGTGTACGGT
DNA 2: ACCGTACACGTTTCCTTACGGGGTCACCAGCTGCAGG
For the molecule B1, the binding result (with ISY1; in data set [1]) was “no binding” each time.
